Measured values taken from publication PMC4975489, “The Arabidopsis Protein Phosphatase PP2C38 Negatively Regulates the Central Immune Kinase BIK1” (PLoS Pathogens, 2016).

Molecular target: T1, recombinant GST-BIK1 (Arabidopsis thaliana, UniProt O48814 1-395)
T1 construct: BIK1, receptor-like cytoplasmic kinase of Arabidopsis thaliana; source: recombinant protein
T1 sequence (looked up): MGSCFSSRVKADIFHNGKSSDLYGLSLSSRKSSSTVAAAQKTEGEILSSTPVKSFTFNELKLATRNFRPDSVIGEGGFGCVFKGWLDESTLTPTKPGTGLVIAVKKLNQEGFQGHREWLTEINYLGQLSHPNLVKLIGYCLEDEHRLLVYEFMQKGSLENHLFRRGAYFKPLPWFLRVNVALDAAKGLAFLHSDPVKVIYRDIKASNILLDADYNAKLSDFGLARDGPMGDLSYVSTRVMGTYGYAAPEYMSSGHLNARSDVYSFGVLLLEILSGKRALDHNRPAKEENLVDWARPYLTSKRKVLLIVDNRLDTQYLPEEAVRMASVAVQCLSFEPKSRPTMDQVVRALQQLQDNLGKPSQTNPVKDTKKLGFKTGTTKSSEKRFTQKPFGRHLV
Assay: pull-down; recombinant MBP-PP2C38 and GST-BIK1 in column buffer (50 mM Tris pH 7.5, 50 mM NaCl, 0.2% IGEPAL CA-630), 4°C; MBP pull-down on amylose resin
Details: both partners purified

binding result: binds
B1: recombinant MBP-PP2C38 (enzyme, Arabidopsis thaliana, UniProt Q9LHJ9 1-385, looked up)
chain: MVSSATILRMVAPCWRRPSVKGDHSTRDANGRCDGLLWYKDSGNHVAGEFSMSVIQANNLLEDHSKLESGPVSMFDSGPQATFVGVYDGHGGPEAARFVNKHLFDNIRKFTSENHGMSANVITKAFLATEEDFLSLVRRQWQIKPQIASVGACCLVGIICSGLLYIANAGDSRVVLGRLEKAFKIVKAVQLSSEHNASLESVREELRSLHPNDPQIVVLKHKVWRVKGIIQVSRSIGDAYLKKAEFNREPLLAKFRVPEVFHKPILRAEPAITVHKIHPEDQFLIFASDGLWEHLSNQEAVDIVNTCPRNGIARKLIKTALREAAKKREMRYSDLKKIDRGVRRHFHDDITVIVVFLDSHLVSRSTSRRPLLSISGGGDLAGPST
notes: PP2C38, protein phosphatase 2C of Arabidopsis thaliana (At3g12620); 'PP2C38 CDS was inserted between BamHI and SalI restriction sites of pMAL-c4E'; source: recombinant protein (PP2C38 CDS in pMAL-c4E, NEB)
